Tests used:
[1] = target: c-Met on MKN45 gastric cancer cells and on Caki-1 cells (human, UniProt P08581 25-1390); assay: cell-based or functional assay
human c-Met protein [2] = target: T1, human c-Met protein (human, UniProt P08581 25-932, limits assumed); assay: SPR (Biacore), against huAbF46 (Table 3)
T1 construct: also called c-Met antigen
Protocol: Affinities of the 4 types of antibodies against c-Met antigen were measured by using a Biacore (GE healthcare). About 80 to 110 RU of each antibody was immobilized on a CM5 chip, and 9 different concentrations ranging from 0.39 nM to 100 nM of human c-Met protein, as an antigen, were injected at a rate of 30 ul/min to obtain kₒₙ values and koff values as shown in Table 3. Then, KD values were calculated based thereon.

human c-Met protein [3] = target: T1, human c-Met protein; assay: method not described
[4] = target: T2, EEPSA peptide (SEQ ID NO: 82); assay: SPR (Biacore), huAbF46 on CM5 chip, peptide injected
T2 peptide: EEPSA

[5] = target: T3, AEPSQ peptide (SEQ ID NO: 78); assay: as above
T3 peptide: AEPSQ

[6] = target: T4, AAAAA peptide (SEQ ID NO: 77); assay: as above
T4 peptide: AAAAA

[7] = target: T5, EEASQ peptide (SEQ ID NO: 80); assay: as above
T5 peptide: EEASQ

[8] = target: T6, EAPSQ peptide (SEQ ID NO: 79); assay: as above
T6 peptide: EAPSQ

[9] = target: T7, EEPSQ peptide (SEQ ID NO: 3); assay: SPR (Biacore), huAbF46 on CM5 chip, peptide injected 0.39-100 nM
T7 construct: the range is one residue short
T7 peptide: EEPSQ

[10] = target: T8, EEPAQ peptide (SEQ ID NO: 81); assay: as above
T8 peptide: EEPAQ

[11] = target: T9, CSPQIEDPSQC (SEQ ID NO: 72); assay: PEPSCAN peptide ELISA
T9 peptide: CSPQIEDPSQC
Protocol: (§1) For epitope mapping, PEPSCAN-based ELISA was performed using a total number of 529 linear and CLIPS peptides. The peptides were maintained at room temperature for 30 minutes by using a 5% blocking solution to provoke a reaction (4% ovalbumin, 5% horse serum, and 1% Tween 80). […] Thereafter, the resultant product was treated with rabbit-anti-sheep antibody (SIGMA) and washed with PBS, and the washed product was then treated with peroxidase-attached swine-anti-rabbit antibody (SIGMA) and washed with PBS. Then, the resultant product was treated with 2 ul/ml of peroxidase 2,2′-azino-di-3-ethylbenzthiazoline sulfonate (ABTS)(SIGMA) in 3% H₂O₂, and a color reaction was measured after 1 hour.

[12] = target: T10, CQIEDPSQAPC (SEQ ID NO: 74); assay: PEPSCAN peptide ELISA
T10 peptide: CQIEDPSQAPC
Protocol: as §1

[13] = target: T11, CIEDPSQAPDC (SEQ ID NO: 75); assay: PEPSCAN peptide ELISA
T11 peptide: CIEDPSQAPDC
Protocol: as §1

[14] = target: T12, FSPQIEDPSQCPDCVVSALGAKVL (SEQ ID NO: 71); assay: PEPSCAN peptide ELISA
T12 construct: Peptide with the E168D mutation
T12 peptide: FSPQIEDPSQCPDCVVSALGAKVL
Protocol: as §1

[15] = target: T13, CEDPSQAPDAC (SEQ ID NO: 76); assay: PEPSCAN peptide ELISA
T13 peptide: CEDPSQAPDAC
Protocol: as §1

[16] = target: T14, CPQIEDPSQAC (SEQ ID NO: 73); assay: PEPSCAN peptide ELISA
T14 peptide: CPQIEDPSQAC
Protocol: as §1

T1 sequence (P08581 25-932 limits assumed): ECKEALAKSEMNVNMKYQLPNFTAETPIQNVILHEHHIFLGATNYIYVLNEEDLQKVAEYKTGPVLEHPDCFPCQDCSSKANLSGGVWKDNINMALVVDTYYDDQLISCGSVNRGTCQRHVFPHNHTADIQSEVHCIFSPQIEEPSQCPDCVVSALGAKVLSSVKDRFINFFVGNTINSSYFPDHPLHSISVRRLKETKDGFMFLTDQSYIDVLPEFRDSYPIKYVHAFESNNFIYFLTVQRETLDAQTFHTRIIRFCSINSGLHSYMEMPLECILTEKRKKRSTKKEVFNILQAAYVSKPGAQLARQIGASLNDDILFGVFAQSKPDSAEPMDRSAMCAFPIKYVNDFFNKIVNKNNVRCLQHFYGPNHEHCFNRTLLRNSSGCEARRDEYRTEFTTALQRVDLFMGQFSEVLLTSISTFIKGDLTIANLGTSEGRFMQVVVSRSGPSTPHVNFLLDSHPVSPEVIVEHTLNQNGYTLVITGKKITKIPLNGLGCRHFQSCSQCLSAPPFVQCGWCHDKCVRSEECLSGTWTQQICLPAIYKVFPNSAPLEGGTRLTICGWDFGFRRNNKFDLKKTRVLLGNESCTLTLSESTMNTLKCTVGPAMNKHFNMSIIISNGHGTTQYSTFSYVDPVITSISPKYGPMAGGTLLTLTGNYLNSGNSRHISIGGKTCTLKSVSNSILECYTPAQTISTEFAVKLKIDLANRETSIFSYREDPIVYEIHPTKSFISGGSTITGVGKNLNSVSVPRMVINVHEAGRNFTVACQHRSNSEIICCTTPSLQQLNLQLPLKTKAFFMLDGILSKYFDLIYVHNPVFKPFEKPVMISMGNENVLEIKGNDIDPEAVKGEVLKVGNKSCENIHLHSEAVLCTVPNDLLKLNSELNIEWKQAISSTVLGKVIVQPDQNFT
Chain of c-Met on MKN45 gastric cancer cells and on Caki-1 cells (P08581 25-1390): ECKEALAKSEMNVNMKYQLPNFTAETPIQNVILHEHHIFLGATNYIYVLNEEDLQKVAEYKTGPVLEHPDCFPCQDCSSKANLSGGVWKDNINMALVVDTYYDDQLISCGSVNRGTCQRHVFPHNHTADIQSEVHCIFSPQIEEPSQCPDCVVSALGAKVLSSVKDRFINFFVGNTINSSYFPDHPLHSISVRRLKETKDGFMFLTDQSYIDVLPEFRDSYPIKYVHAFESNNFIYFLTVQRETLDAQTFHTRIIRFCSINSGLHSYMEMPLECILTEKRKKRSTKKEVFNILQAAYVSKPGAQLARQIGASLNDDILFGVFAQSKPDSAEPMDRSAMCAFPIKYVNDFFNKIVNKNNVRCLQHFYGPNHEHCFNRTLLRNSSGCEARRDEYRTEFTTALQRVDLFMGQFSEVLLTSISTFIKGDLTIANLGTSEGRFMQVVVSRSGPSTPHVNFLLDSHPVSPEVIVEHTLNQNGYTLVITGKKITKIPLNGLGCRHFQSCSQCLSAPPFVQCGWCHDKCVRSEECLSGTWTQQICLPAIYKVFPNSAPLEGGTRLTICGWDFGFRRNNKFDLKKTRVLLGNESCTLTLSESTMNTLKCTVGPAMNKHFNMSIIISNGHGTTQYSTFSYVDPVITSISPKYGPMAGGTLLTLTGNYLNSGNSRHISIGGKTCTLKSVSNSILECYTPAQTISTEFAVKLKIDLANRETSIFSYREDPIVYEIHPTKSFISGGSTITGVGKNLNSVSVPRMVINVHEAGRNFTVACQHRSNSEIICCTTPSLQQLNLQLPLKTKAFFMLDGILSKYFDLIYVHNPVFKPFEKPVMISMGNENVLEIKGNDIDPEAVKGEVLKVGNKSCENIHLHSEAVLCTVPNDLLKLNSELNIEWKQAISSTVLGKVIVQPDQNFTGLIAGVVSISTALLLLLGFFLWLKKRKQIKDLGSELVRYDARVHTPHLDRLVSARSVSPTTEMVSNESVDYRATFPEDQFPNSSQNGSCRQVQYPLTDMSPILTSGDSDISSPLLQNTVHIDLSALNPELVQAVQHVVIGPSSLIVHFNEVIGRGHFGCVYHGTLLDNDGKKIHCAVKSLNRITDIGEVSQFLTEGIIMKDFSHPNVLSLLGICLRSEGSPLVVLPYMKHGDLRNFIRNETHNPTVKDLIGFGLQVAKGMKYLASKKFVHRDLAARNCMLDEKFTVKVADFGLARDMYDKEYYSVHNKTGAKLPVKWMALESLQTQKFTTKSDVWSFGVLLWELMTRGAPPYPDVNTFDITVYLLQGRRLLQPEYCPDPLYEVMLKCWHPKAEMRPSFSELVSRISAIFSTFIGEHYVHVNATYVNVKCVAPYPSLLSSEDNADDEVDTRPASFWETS

B1: huAbF46-H4-A5 (antibody, V domains shown)
VH: EVQLVESGGGLVQPGGSLRLSCAASGFTFTDYYMSWVRQAPGKGLEWLGFIRNKANGYTTEYSASVKGRFTISRDNSKNTLYLQMNSLRAEDTAVYYCARDNWFAYWGQGTLVTVSS
VL: DIQMTQSPSSLSASVGDRVTITCKSSQSLLASGNQNNYLAWHQQKPGKAPKMLIIWASTRVSGVPSRFSGSGSGTDFTLTISSLQPEDFATYYCQQSYSRPFTFGQGTKVEIKR
In the case of B1, the “degree of degradation of c-Met (total c-Met ELISA, MKN45 cells, 5 ug/ml antibody, 24 hours)” value (“degree of degradation of c-Met” for short) [1] is reported as ~28%.

B2: huAbF46-H4-A1 (antibody, V domains shown)
VH: EVQLVESGGGLVQPGGSLRLSCAASGFTFTDYYMSWVRQAPGKGLEWLGFIRNKANGYTTEYSASVKGRFTISRDNSKNTLYLQMNSLRAEDTAVYYCARDNWFAYWGQGTLVTVSS
VL: DIQMTQSPSSLSASVGDRVTITCKSSQSLLASGNQNNYLAWHQQKPGKAPKMLIIWASTRVSGVPSRFSGSGSGTDFTLTISSLQPEDFATYYCQQSYSRPYTFGQGTKVEIKR
notes: IgG; also called IgG from clone L3-1
With B2 the “degree of degradation of c-Met” value [1] was ~37% and the “fold improvement of affinity” value (human c-Met protein [2]) was 37 times.

B3: huAbF46-H4-A2 (antibody, V domains shown)
VH: EVQLVESGGGLVQPGGSLRLSCAASGFTFTDYYMSWVRQAPGKGLEWLGFIRNKANGYTTEYSASVKGRFTISRDNSKNTLYLQMNSLRAEDTAVYYCARDNWFAYWGQGTLVTVSS
VL: DIQMTQSPSSLSASVGDRVTITCKSSQSLLASGNQNNYLAWHQQKPGKAPKMLIIWASTRVSGVPSRFSGSGSGTDFTLTISSLQPEDFATYYCGQSYSRPLTFGQGTKVEIKR
notes: IgG; also called IgG from clone L3-2
With B3 the “degree of degradation of c-Met” value [1] was ~28% and the “fold improvement of affinity” value (human c-Met protein [2]) was 5 times.

B4: huAbF46-H4-A3 (antibody, V domains shown)
VH: EVQLVESGGGLVQPGGSLRLSCAASGFTFTDYYMSWVRQAPGKGLEWLGFIRNKANGYTTEYSASVKGRFTISRDNSKNTLYLQMNSLRAEDTAVYYCARDNWFAYWGQGTLVTVSS
VL: DIQMTQSPSSLSASVGDRVTITCKSSQSLLASGNQNNYLAWHQQKPGKAPKMLIIWASTRVSGVPSRFSGSGSGTDFTLTISSLQPEDFATYYCAQSYSHPFSFGQGTKVEIKR
For B4, the “degree of degradation of c-Met” value [1] was ~28%.

B5: scFv of huAbF46 antibody (scFv)
scFv: EVQLVESGGGLVQPGGSLRLSCAASGFTFTDYYMSWVRQAPGKGLEWLGFIRNKANGYTTEYSASVKGRFTISRDNSKNTLYLQMNSLRAEDTAVYYCARDNWFAYWGQGTLVTVSSGLGGLGGGGSGGGGSGGSSGVGSDIQMTQSPSSLSASVGDRVTITCKSSQSLLASGNQNNYLAWHQQKPGKAPKMLIIWASTRVSGVPSRFSGSGSGTDFTLTISSLQPEDFATYYCQQSYSAPLTFGQGTKVEIKR
notes: 'VH-linker-VL' form; Tags or display fusion partner not described; also called wild-type antibody (scFv of huAbF46)
B5: binds (human c-Met protein [3]).

B6: humanized antibody huAbF46 (H4-heavy chain and H4-light chain) (antibody, human IgG1, kappa, V domains shown)
VH: EVQLVESGGGLVQPGGSLRLSCAASGFTFTDYYMSWVRQAPGKGLEWLGFIRNKANGYTTEYSASVKGRFTISRDNSKNTLYLQMNSLRAEDTAVYYCARDNWFAYWGQGTLVTVSS
VL: DIQMTQSPSSLSASVGDRVTITCKSSQSLLASGNQNNYLAWHQQKPGKAPKMLIIWASTRVSGVPSRFSGSGSGTDFTLTISSLQPEDFATYYCQQSYSAPLTFGQGTKVEIKR
notes: also called humanized antibody AbF46
B6: no binding (tested: 100 nM to 0.39 nM of the peptides) [4]; no binding (tested: 100 nM to 0.39 nM of the peptides) [5]; no binding (tested: 100 nM to 0.39 nM of the peptides) [6]. The binding result [7] was “no binding (tested: 100 nM to 0.39 nM of the peptides)”, the binding result [8] was “no binding (tested: 100 nM to 0.39 nM of the peptides)” and the Kd [9] was 1.64 nM. The Kd [10] was 1.43 nM, the binding result [11] was “no binding (tested: 1 to 100 ug/ml of huAbF46 antibody)” and the binding result [12] was “no binding (tested: 1 to 100 ug/ml of huAbF46 antibody)”. B6: no binding (tested: 1 to 100 ug/ml of huAbF46 antibody) [13]; no binding (tested: 1 to 100 ug/ml of huAbF46 antibody) [14]; no binding (tested: 1 to 100 ug/ml of huAbF46 antibody) [15]. B6: no binding (tested: 1 to 100 ug/ml of huAbF46 antibody) [16].

Source: patent publication US20130089557A1 (SAMSUNG ELECTRONICS, published 2013)
